Measurements reported in patent publication US6387638.
Residue numbers refer to the chain shown, from its start. Numbers in names are those of the source. Like-named read-outs stand apart in the source and are kept apart here. Ends that are not written are not given here.

B1: HRG-β1 EGF variant D4, phage-displayed (ligand)
chain: SHLVKCAEKEKTFCVNGGECYRVKTLSNPSRYLCKCPNEFTGDRCQNYVMAS
modifications: not fully specified; cysteine pairing not given here
notes: pHRG8-g3 scaffold; not shown: Display carrier only: the (GGGS)3 linker and the M13 pIII C-terminal fragment from residue 323
B2: HRG-β1 177-244 F216A, phage-displayed (ligand, phage M13)
chain: SHLVKCAEKEKTFCVNGGECFMVKDLSNPSRYLCKCPNEATGDRCQNYVMASFYKHLGIEFMEAEELYGGSGGGSGSGDFDYEKMANANKGAMTENADENALQSDAKGKLDSVATDYGAAIDGFIGDVSGLANGNGATGDFAGSNSQMAQVGDGDNSPLMNNFRQYLPSLPQSVECRPFVFSAGKPYEFSIDCDKINLFRGVFAFLLYVATFMYVASTFANILRNKES
notes: range 247-end
B3: HRG8: wild-type HRG-β1 177-228 (HRG-β1 EGF 1-52) fused via (GGGS)3 to pIII 323, phage-displayed (ligand, phage M13)
chain: SHLVKCAEKEKTFCVNGGECFMVKDLSNPSRYLCKCPNEFTGDRCQNYVMASGGGSGGGSGGGSNSQMAQVGDGDNSPLMNNFRQYLPSLPQSVECRPFVFSAGKPYEFSIDCDKINLFRGVFAFLLYVATFMYVFSTFANILRNKES
notes: range 323-end; Monovalent M13 phage display; also called wild-type HRG-β1 EGF-phage
B4: HRG-β1 177-244 L179M, phage-displayed (Example 4 clone) (ligand)
chain: SHMVKCAEKEKTFCVNGGECFMVKDLSNPSRYLCKCPNEFTGDRCQNYVMASFYKHLGIEFMEAEELY
notes: not shown: Display carrier only: the M13 pIII C-terminal fragment from residue 247
B5: HRG-β1 177-244 H178T L179M, phage-displayed (Example 4 clone) (ligand)
chain: B4 chain with H2T
notes: also called T M ·; not shown: M13 pIII C-terminal fragment (fusion point pIII 247), the phage display partner
B6: HRG-β1 177-244 H178E L179V, phage-displayed (Example 4 clone) (ligand)
chain: B4 chain with H2E, M3V
notes: also called E V ·; not shown: M13 pIII C-terminal fragment (fusion point pIII 247), the phage display partner
B7: HRG-β1 177-244 F189A, phage-displayed (ligand)
chain: B4 chain with M3L, F13A

Columns and labels:
[1] = biological target: T1, ErbB-3 receptor-Ig fusion (homodimer) (human, UniProt P21860 20-643; P21860 20-636); experiment: phage ELISA, soluble ErbB-3-Ig as competitor
T1 sequence (P21860 other isoform, or with tags, fused parts or gaps): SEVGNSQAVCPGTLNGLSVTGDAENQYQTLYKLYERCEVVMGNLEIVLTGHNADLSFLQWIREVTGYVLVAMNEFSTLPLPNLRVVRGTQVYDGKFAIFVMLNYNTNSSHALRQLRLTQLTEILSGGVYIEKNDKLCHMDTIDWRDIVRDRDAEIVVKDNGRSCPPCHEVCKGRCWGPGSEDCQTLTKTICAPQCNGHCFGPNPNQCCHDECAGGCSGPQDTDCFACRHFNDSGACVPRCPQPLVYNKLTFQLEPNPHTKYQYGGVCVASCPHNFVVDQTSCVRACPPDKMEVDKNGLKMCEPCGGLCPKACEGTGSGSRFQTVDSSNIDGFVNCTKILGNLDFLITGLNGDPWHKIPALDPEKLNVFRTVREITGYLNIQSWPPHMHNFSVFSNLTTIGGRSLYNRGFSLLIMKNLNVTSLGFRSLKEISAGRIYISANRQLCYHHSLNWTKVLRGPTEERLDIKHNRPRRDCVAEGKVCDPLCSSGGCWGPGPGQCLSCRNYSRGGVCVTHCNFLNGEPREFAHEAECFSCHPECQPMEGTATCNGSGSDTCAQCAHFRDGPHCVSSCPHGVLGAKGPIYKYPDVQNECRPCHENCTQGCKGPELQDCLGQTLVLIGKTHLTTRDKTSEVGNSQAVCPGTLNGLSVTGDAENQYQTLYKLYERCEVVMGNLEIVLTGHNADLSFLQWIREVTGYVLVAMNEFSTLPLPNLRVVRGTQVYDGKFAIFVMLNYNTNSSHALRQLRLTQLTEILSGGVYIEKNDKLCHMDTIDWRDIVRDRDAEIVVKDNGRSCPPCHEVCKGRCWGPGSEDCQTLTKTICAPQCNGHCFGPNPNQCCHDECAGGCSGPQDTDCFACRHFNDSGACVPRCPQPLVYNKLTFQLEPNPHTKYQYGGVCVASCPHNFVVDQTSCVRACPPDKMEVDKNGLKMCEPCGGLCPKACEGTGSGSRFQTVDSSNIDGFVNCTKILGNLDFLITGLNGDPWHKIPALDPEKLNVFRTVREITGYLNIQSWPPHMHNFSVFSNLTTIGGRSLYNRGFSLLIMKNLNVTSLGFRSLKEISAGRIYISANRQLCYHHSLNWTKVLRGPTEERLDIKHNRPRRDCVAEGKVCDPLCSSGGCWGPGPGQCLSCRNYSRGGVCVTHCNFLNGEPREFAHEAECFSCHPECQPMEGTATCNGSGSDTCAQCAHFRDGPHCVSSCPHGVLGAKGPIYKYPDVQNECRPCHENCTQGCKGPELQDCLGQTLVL

[2] = biological target: T2, ErbB-4 receptor-Ig fusion (homodimer) (human, UniProt Q15303 26-651; Q15303 26-640); experiment: phage ELISA, soluble ErbB-4-Ig as competitor
T2 sequence (Q15303 other isoform, or with tags, fused parts or gaps): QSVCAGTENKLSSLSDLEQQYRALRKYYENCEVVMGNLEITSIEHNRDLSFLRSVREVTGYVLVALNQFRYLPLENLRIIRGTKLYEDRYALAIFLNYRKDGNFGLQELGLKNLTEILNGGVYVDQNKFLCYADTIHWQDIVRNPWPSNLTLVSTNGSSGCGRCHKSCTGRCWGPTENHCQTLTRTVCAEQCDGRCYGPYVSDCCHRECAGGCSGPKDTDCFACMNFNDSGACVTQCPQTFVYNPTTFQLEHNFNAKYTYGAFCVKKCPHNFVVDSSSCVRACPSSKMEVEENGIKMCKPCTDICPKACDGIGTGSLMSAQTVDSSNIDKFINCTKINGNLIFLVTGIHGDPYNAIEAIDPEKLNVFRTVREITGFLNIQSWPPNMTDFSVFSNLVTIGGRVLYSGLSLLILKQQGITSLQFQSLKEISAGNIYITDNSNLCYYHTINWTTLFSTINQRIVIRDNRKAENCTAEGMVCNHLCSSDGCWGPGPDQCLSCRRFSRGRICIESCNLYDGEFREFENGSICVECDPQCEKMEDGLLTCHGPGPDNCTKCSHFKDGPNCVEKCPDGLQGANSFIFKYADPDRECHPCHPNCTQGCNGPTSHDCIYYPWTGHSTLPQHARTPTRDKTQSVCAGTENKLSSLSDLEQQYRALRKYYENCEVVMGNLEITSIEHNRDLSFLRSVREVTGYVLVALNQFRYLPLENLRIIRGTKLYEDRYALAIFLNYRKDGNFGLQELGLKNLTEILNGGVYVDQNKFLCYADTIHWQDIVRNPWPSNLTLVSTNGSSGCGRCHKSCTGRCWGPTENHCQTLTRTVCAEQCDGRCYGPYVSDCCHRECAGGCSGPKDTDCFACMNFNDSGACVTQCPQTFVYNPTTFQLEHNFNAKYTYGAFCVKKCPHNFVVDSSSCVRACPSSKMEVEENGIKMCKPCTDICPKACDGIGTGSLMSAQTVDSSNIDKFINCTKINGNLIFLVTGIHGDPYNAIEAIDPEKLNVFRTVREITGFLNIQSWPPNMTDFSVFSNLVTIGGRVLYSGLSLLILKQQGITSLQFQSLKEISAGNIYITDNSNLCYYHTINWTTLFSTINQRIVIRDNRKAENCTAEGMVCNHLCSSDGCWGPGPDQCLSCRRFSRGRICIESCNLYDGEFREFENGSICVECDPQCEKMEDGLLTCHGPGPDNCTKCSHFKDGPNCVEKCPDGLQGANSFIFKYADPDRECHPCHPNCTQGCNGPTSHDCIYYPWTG

[3] = biological target: T2, ErbB-4 receptor-Ig fusion (homodimer); experiment: phage ELISA, soluble ErbB-4-Ig as competitor; remark: listed apart in the source
[4] = biological target: T1, ErbB-3 receptor-Ig fusion (homodimer); experiment: phage ELISA, soluble ErbB-3-Ig as competitor; remark: listed apart in the source
[5] = biological target: T1, ErbB-3 receptor-Ig fusion (homodimer); experiment: phage ELISA, soluble ErbB-3-Ig as competitor; remark: listed apart in the source
[6] = biological target: T1, ErbB-3 receptor-Ig fusion (homodimer); experiment: phage ELISA, soluble ErbB-3-Ig as competitor; remark: listed apart in the source
[7] = biological target: T2, ErbB-4 receptor-Ig fusion (homodimer); experiment: phage ELISA, soluble ErbB-4-Ig as competitor; remark: listed apart in the source
[8] = biological target: T2, ErbB-4 receptor-Ig fusion (homodimer); experiment: phage ELISA, soluble ErbB-4-Ig as competitor; remark: listed apart in the source

| Molecule | EC50 Mut/WT [1] | EC50 Mut/WT [2] | other results |
| --- | --- | --- | --- |
| HRG-β1 177-244 H178L with 228-231 replaced by Met, phage-displayed (Example 4 clone) (from UniProt P69168 265-424) (ligand) | 6.4 | 1.7 | – |
| HRG-β1 177-244 L179V, phage-displayed (Example 4 clone) (from UniProt P69168 265-424) (ligand) | 1.5 | 1.6 | – |
| HRG-β1 177-244 H178W with 228-231 replaced by Met, phage-displayed (Example 4 clone) (from UniProt P69168 265-424) (ligand) | 1.2 | 1.7 | – |
| HRG-β1 177-244 H178D L179V, phage-displayed (Example 4 clone) (from UniProt P69168 265-424) (ligand) | 2.2 | 2 | – |
| HRG-β1 177-244 H178E, phage-displayed (Example 4 clone) (from UniProt P69168 265-424) (ligand) | 9.5 | 1.7 | – |
| HRG-β1 177-244 H178L, phage-displayed (Example 4 clone) (from UniProt P69168 265-424) (ligand) | 1.4 | 1.2 | – |
| HRG-β1 177-244 R207P, phage-displayed (Example 4 clone) (from UniProt P69168 265-424) (ligand) | 6.1 | 1.3 | – |
| B1 | – | – | EC50(wt)/EC50(mut) [3]: 5 ratio; EC50(wt)/EC50(mut) [4]: 2.9 ratio |
| B2 | – | – | EC50 [5]: 500 nM |
| B3 | – | – | EC50(wt)/EC50(mut) [3]: 1 ratio; EC50(wt)/EC50(mut) [4]: 1 ratio |
| B4 | – | – | EC50 Mut/WT [6]: 1.2 ratio; EC50 Mut/WT [7]: 1.5 ratio |
| B5 | – | – | EC50 Mut/WT [6]: 1.4 ratio; EC50 Mut/WT [7]: 1.6 ratio |
| B6 | – | – | EC50 Mut/WT [6]: 0.8 ratio; EC50 Mut/WT [7]: 1.7 ratio |
| B7 | – | – | EC50 [8]: 106 nM; EC50 [5]: 892 nM |
